The source of these data is article PMC4622073 (mAbs, 2014).

Test [1] has as its target T1, mST2-Fc fusion protein (unlabelled) (mouse, UniProt P14719 27-332).
T1 sequence: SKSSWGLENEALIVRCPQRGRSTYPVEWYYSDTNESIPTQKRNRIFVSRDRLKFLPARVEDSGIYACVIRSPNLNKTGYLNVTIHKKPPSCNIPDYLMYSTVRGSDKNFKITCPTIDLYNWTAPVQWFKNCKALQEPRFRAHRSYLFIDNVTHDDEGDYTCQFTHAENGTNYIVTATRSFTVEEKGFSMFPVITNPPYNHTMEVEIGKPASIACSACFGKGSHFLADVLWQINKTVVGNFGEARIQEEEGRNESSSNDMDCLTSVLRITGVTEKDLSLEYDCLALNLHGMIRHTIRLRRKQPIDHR
Kind of test: AlphaScreen or HTRF. For orientation: Alpha assays give light when donor and acceptor beads are brought close together.

Test [2] concerns the target T2, biotinylated mST2-Fc fusion protein (mouse, UniProt P14719 27-332, biotin (site not stated)).
T2 sequence: T1 sequence
Nature of the test: AlphaScreen or HTRF.

B1: mouse interleukin-33 (mIL-33), amino acids 97-266, FLAG 10His tagged (ligand)
chain: SIQAFAASVDTLSIQGTSLLTQSPASLSTYNDQSVSFVLENGCYVINVDDSGKDQEQDQVLLRYYESPCPASQSGDGVDGKKLMVNMSPIKDTDIWLHANDKDYSVELQRGDVSPPEQAFFVLHKKSSDFVSFECKNLPGTYIGVKDNQLALVEEKDESCNNIMFKLSKI
Consider B1, for which the binding result in test [1] and in test [2] was “binds” throughout.
